Laboratory results as given in patent US20190008955A1 (SORRENTO THERAPEUTICS, published 2019).
Blank lines part the entries; values can stand above or below the binder they belong to.

Columns and labels:
human CXCR3 [1] = molecular target: T1, human CXCR3 (human, UniProt P49682 1-368); experiment: flow cytometry, antibody titration on CHO-CXCR3 cells
T1 construct: whole, on cells; also called hu-CXCR3; C-X-C chemokine receptor 3
T1 sequence (looked up): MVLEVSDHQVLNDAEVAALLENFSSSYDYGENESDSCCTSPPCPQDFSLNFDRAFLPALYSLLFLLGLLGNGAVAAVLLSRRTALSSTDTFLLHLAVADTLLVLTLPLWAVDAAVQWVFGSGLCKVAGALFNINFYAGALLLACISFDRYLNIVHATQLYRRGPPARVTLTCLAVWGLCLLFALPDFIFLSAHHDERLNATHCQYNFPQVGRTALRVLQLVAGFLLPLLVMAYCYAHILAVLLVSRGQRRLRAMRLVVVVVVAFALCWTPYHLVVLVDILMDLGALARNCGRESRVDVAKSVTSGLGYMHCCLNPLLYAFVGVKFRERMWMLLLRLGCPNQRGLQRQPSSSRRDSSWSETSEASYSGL
Experimental: In this example, CHO-CXCR3 cells were lifted from culture flasks using non-enzymatic Cell Dissociation Buffer-PBS based (Life Technologies #13151-014). Cells were resuspended in FACS Buffer (2% Fetal Bovine Serum in PBS) at 1×10⁶ cells/ml and 50 μl (0.5×10⁵ cells) were aliquoted into the wells of a 96-well plate. Plated cells were spun down and the supernatant discarded. Cells were resuspended in 30 μl FACS Buffer containing serially diluted concentrations of antibody in triplicate. Plates were incubated for 1 hr at 4° C. and then washed twice with FACS Buffer. Cells were resuspended in 50 μl goat anti-human IgG (γ-chain specific)-PE conjugated secondary antibody (Southern Biotech #2040-09) diluted 1:500 in FACS Buffer. Cells were further incubated for 30 min at 4° C. and then washed 1× with FACS Buffer. The cells were resuspended in a final volume of 30 μl FACS Buffer and analyzed using the Intellicyt Flow Cytometer. Median fluorescence in the FL-2H channel was determined using FlowJo software and EC₅₀ value was determined by plotting the data in GraphPad Prism and analyzing using a variable slope non-linear regression.

human CXCR3 [2] = molecular target: T1, human CXCR3; experiment: cell-based or functional assay
human CXCR3 [3] = molecular target: T1, human CXCR3; experiment: cell-based or functional assay; remark: listed apart in the source
murine CXCR3 = molecular target: T2, murine CXCR3 (murine, UniProt O88410 1-367); experiment: flow cytometry, antibody titration on murine B16-F10 cells
T2 construct: whole, on cells; target is the endogenous receptor on B16-F10 cells; also called mur CXCR3
T2 sequence (looked up): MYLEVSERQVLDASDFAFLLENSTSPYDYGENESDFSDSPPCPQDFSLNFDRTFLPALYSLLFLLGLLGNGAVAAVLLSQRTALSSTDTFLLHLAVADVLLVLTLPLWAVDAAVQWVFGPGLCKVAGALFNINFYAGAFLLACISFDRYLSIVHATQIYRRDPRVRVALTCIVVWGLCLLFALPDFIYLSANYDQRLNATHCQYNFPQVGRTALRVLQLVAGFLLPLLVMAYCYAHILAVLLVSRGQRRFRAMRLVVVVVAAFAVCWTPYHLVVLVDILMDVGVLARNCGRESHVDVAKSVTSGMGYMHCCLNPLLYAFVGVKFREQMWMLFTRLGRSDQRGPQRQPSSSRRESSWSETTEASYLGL
Experimental: In this example, murine B16-F10 cells (ATCC, #CRL-6475) were lifted from culture flasks using non-enzymatic Cell Dissociation Buffer-PBS based (Life Technologies #13151-014). Cells were harvested, washed and resuspended in FACS Buffer (2% Fetal Bovine Serum in PBS) at 1×10⁶ cells/ml and 50 μl (0.5×10⁵ cells) were aliquoted into the wells of a 96-well plate. Plated cells were spun down and the supernatant discarded. Cells were resuspended in 30 μl FACS Buffer serially diluted concentrations of antibody in triplicate. Plates were incubated for 1 hr at 4° C. and then washed 2× with FACS Buffer. Cells were resuspended in 50 μl goat anti-human IgG (γ-chain specific)-PE conjugated secondary antibody (Southern Biotech #2040-09) diluted 1:500 in FACS Buffer. Cells were further incubated for 30 min at 4° C. and then washed 1× with FACS Buffer. The cells were resuspended in a final volume of 30 μl FACS Buffer and analyzed using the Intellicyt Flow Cytometer. Median fluorescence in the FL-2H channel was determined using FlowJo software and the EC₅₀ value was determined by plotting the data in GraphPad Prism and analyzing using a variable slope non-linear regression.

B2: 3A11 (antibody, V domains shown)
VH: QVQLVQSGGGLVKPGGSLRLSCAASGFTFTSSGMNWVRQAPGKGLEWVAYIFPNGKTLYPESVKGRFIITRDNAEKSLFLEMNNLRAEDMGVYYCAIDLNWGSGYWGQGTLVTVSS
VL: SYVLTQPPSVSKGLRQTATLTCTGNINNVGNVGATWLQQHQGHPPKLLSDRNNNRPSGISERFSASRSGNAASLTITGLQPEDEADYYCSAWDTSLGAWVFGGGTKLTVL
notes: Fully human IgG class
EC50 (human CXCR3 [1]): 1.2 nM

B4: 2A3 (antibody, V domains shown)
VH: QVQLVQSGAEVKKPGSSVKVACKASGGTFSHSAISWVRQAPGQGLEWIGRTIPTLEMASYAQKFQGRVTISADKSTRTGYMELRDLRSEDTAVYYCSTQTPSYTDHWGQGTLVTVSS
VL: DIVMTQTPLSLPVTLGQPASISCRSSQSLVHSDGNTYLNWFQQRPGQSPRRLIYKVSNRDSGVPDRFSGSGSGTDFTLKISRVEAEDVGVYYCMQGTHWPLTFGGGTKVEIK
notes: Fully human IgG class
EC50 (human CXCR3 [1]): 11 nM

B5: 3A3 (antibody, V domains shown)
VH: QVQLVQSGAEVKKPGSSVKVSCKASGGTFNRYAFSWVRQAPGQGPELMGRIMPMFDIASYAQKFQGRLTITADKSTSTAYMELSSLRSDDTAVYYCTQVSGDSDYWGPGTLVTVSS
VL: DIVMTQTPLSLPVTLGQPASISCRSSQSLVHNDGNTYLNWFHQRPGQSPRRLIYKVSNRDFGVPDRFSGSGSGTDFTLRISRVEAEDVGVYYCMQGSHWPLTFGGGTKVEIK
notes: Fully human IgG class
EC50 (human CXCR3 [1]): 0.5 nM

Continued, values first:

EC50 (human CXCR3 [1]): 0.6 nM
B1: 3C11 (antibody, V domains shown)
VH: EVQLVESGGGLVQPGGSLRLSCSASGFTFSSYAMHWVRQAPGKGLEYVSAISSNGGSTYYADSVKGRFTISRDNSKNTLYLQMSSLRAEDTAVYYCVKSIAAAGTQYYYYYMDVWGKGTTVTVSS
VL: DIQLTQSPSSLSASVGDRVTITCRASQGIGTYLAWFQQKPGKVPKPLIYAASTLQSGVPSRFSGSGSGADFTLTISSLQPEDVATYYCQKYNSVPQTFGQGTKVEIK
notes: Fully human IgG class

IC50 [nM] in a calcium flux assay using CHO-CXCR3 cells, ligand CXCL11 (60 nM) (human CXCR3 [2]): 19 nM
IC50 [nM] in a chemotaxis assay using activated T cells, ligand CXCL9 (30 nM) (human CXCR3 [3]): 2.5 nM
IC50 [nM] in a chemotaxis assay using activated T cells, ligand CXCL10 (12.5 nM) (human CXCR3 [3]): 0.03 nM
IC50 [nM] in a chemotaxis assay using activated T cells, ligand CXCL11 (0.3 nM) (human CXCR3 [3]): 3.4 nM
EC50 (human CXCR3 [1]): 4 nM
B3: 32D12 (antibody, V domains shown)
VH: EVQLLESGGGLVQPGGSQRLSCAASGFTFSSYPMTWVRQAPGKGLEWVSAISDGGSGTYYADSVKGRFTISRDNSKNTLYLQMNSLRAEDTAIYYCARYKMGGSYRGLDDWGQGTLVTVSS
VL: LPVLTQPASVSGSPGQPITISCTGTSGNIGSYNYVSWYQQHPGKAPRLLIYDVSLRPSGISSHFSGSKSGNTASLTISGLQAEDEAEYFCLSWTSDKTYVFGSGTKLTVL
notes: Fully human IgG class

EC50 (human CXCR3 [1]): 5 nM
B6: F7 (antibody, V domains shown)
VH: QVQLVQSGAEVKKPGSSVKVACKASGGTFSHSAISWVRQAPGQGLEWIGRTIPTLEMASYAQKFQGRVTISADKSTRTGYMELRDLRSEDTAVYYCSTQTPSYTDHWGQGTLVTVSS
VL: DIVMTQTPLSLPVTLGQPASISCRSNQSLVHSDGNTYLYWFQQRPGQSPRRLIYKVSNRDSGVPDRFSGSGSGTDFTLKINRVEAEDVGVYYCMQGTHWPNTFGQGTKLEIK
notes: Fully human IgG class; 31

IC50 [nM] in a calcium flux assay using CHO-CXCR3 cells, ligand CXCL9 (200 nM) (human CXCR3 [2]): 37 nM
IC50 [nM] in a calcium flux assay using CHO-CXCR3 cells, ligand CXCL10 (164 nM) (human CXCR3 [2]): 7 nM
IC50 [nM] in a calcium flux assay using CHO-CXCR3 cells, ligand CXCL11 (60 nM) (human CXCR3 [2]): 16 nM
IC50 [nM] in a chemotaxis assay using activated T cells, ligand CXCL9 (30 nM) (human CXCR3 [3]): 0.6 nM
IC50 [nM] in a chemotaxis assay using activated T cells, ligand CXCL10 (12.5 nM) (human CXCR3 [3]): 0.2 nM
IC50 [nM] in a chemotaxis assay using activated T cells, ligand CXCL11 (0.3 nM) (human CXCR3 [3]): 0.3 nM
EC50 (human CXCR3 [1]): 1 nM
EC50 (murine CXCR3): 25 nM
B7: 32B12 (antibody, V domains shown)
VH: EVQLVQSGGGLVKSGRSLRLSCTVSGFTFGNSAMSWFRQAPGKGLEWVSSISSSSSYIYYADSVKGRFTISRDNAKNSLYLQMNSLRAEDTAVYYCARDLSGRGYSYLNYWGQGTLVTVSS
VL: SYELTQPPSVSAAPGQKVTISCSGSSSNIGNSYVSWFQQFPGTAPKLVIYENNKRPSGIPDRFSGSKSGTSATLGITGLQTGDEADYYCGTWDSSLSGRVFGGGTKLTVL
notes: Described as a fully human antibody of an IgG class and detected with anti-human IgG (gamma-chain specific); also called anti-CXCR3 antibody 32B12; clone 32B12
